Test results: patent publication US20100178296A1 (SCHERING, published 2010)

T1: wild-type human CD200RLa extracellular domain fused to the Fc region of human IgG1 (human, UniProt Q6Q8B3 24-239)
T1 construct: also called wild-type human CD200RLa fusion protein; not shown: Fc region of human IgG1
T1 sequence: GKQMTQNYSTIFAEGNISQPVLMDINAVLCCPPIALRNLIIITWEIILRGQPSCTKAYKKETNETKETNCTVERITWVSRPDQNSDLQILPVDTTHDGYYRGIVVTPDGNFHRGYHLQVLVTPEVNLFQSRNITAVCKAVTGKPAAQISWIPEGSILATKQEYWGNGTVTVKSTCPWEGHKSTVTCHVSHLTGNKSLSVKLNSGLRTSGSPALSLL

T2: CYS mutated human CD200RLa extracellular domain fused to the Fc region of human IgG1 (human, UniProt Q6Q8B3 24-239)
T2 construct: also called CYS mutated human CD200RLa fusion protein; Human CD200RLa-Cys-mut; not shown: Fc region of human IgG1
T2 chain: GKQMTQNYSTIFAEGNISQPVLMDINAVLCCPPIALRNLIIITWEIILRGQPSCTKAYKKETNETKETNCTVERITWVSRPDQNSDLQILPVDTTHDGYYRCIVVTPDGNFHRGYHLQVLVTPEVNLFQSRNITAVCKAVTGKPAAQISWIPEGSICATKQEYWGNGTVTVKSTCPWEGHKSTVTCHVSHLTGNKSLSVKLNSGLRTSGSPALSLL

B1: CYS mutated human CD200RLa, full length, on Ba/F3 cells expressing human DAP12 (receptor)
chain: GKQMTQNYSTIFAEGNISQPVLMDINAVLCCPPIALRNLIIITWEIILRGQPSCTKAYKKETNETKETNCTVERITWVSRPDQNSDLQILPVDTTHDGYYRCIVVTPDGNFHRGYHLQVLVTPEVNLFQSRNITAVCKAVTGKPAAQISWIPEGSICATKQEYWGNGTVTVKSTCPWEGHKSTVTCHVSHLTGNKSLSVKLNSGLRTSGSPALSLLIILYVKLSLFVVILVTTGFVFFQRINHVRKVL
notes: also called Human CD200RLa-Cys-mut; CYS mutated form of the receptor

Tests used:
[1] = molecular target: T3, human DAP12 with a FLAG epitope at the N terminus, in Ba/F3 cells (human, UniProt O43914 22-113); experiment: surface appearance of FLAG-DAP12 on Ba/F3 transfectants, flow cytometry with anti-FLAG M2
T3 construct: whole, on cells; also called FLAG-tagged DAP12

[2] = molecular target: B1; experiment: flow cytometry on Ba/F3 transfectants
[3] = molecular target: T1, wild-type human CD200RLa extracellular …; experiment: indirect ELISA on the fusion protein
[4] = molecular target: T2, CYS mutated human CD200RLa …; experiment: indirect ELISA on the fusion protein

T3 sequence (O43914 22-113): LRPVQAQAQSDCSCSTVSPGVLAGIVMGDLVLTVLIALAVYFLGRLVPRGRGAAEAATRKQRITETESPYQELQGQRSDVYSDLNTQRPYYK

Row | Binder | binding result [1] | binding result [2] | binding result [3] | binding result [4]
1 | B1 | binds | – | – | –
2 | DX182, rat anti-human inhibitory CD200R monoclonal antibody (antibody, V domains shown, Rat hybridoma antibody; Rat IgG2a served as its isotype control; also called rat DX182; anti-huCD200R) VL: EVQMTQSPSTLTASPGESVSINCKASKNIRSYLAWYQQKPGKPNKLLIYSGSTLHSGTPSRFSGSGFGTDFTLTIRNLEPEDFGLYYCQQHHEYPLTFGSGTKLEIKR VH: EIQLQESGPGLVKPSQSLSLTCSVTGYTITSGYDWSWIRKFPGNKMEWMGYINYGGSTNYKPSLGSRISITRDTSKNQFFLQLNSVSPEDTATYYCAKYNEYKSYIYDWYFDFWGPGTMVTVSS | – | no binding | no binding | no binding
